Assay [1] concerns the target T1, HA of A/California/04/2009 (H1N1) (influenza A virus (H1N1)), P26140. The experiment in a line: ELISA. The note with it: remark: other sources report otherwise. A general note: In an ELISA, binding on a coated surface is turned into a signal by an enzyme label.
The target in assay [2] is T1, HA of A/California/04/2009 (H1N1) …. The assay can be described thus: ELISA, recombinant HA. The note with it: remark: other sources report otherwise.
The target in assay [3] is HA of A/Shanghai/2/2013 (H7N9) (influenza A virus (H7N9)).
Assay [4] addresses HA of A/Netherlands/219/2003 (H7N7) (influenza A virus (H7N7)).
The target in assay [5] is HA of A/Indonesia/5/2005 (H5N1) (influenza A virus (H5N1)).
Assay [6] concerns the target HA of A/shearwater/Western Australia/2576/1979 (H15N9) (influenza A virus (H15N9)).
Assay [7] addresses HA of A/Hong Kong/1073/99 (H9) (influenza A virus (H9)).
In assay [8] the target is HA of A/mallard duck/Astrakhan/263/1982 (H14N5) (influenza A virus (H14N5)).
Assay [9] has as its target T1, HA of A/California/04/2009 (H1N1) …. The assay can be described thus: ELISA, recombinant HA. The note with it: remark: other sources report otherwise. This is another data set of the same source.
Assay [10] shares this target. The assay can be described thus: BLI, 1:1 global fit; Table S2 of the text prints 48 for this strain. The note with it: remark: other sources report otherwise.
The target is the same in assay [11]. The experiment in a line: BLI, Fab on immobilized biotinylated HA. The note with it: remark: other sources report otherwise.
The target of assay [12] is HA of A/Hong Kong/1/1968 (H3N2) (influenza A virus (H3N2)), Q91MA7. The following applies: remark: other sources report otherwise.

Residue numbers refer to the chain shown, from its start. Names and notes keep the numbering of the source.

B1: FluA-20 (hybridoma-produced IgG) (antibody, V domains shown)
VH: QVQLQESGPGLVKPSETLSLTCSVSGVSVTSDIYYWTWIRQPPGKGLEWIGYIFYNGDTNYNPSLKSRVTMSIDTSKNEFSLRLTSVTAADTAVYFCARGTEDLGYCSSGSCPNHWGQGTLVTVSS
VL: DIQMTQSPSSLSASIGDRVTITCRPSQNIRSFLNWFQHKPGKAPKLLIYAASNLQSGVPSRFSGSGSGTEFTLTIRSLQPEDFATYYCQQSYNTPPTFGQGTKVEIK
What is called EC50 is the concentration at which the effect is half-maximal. As for B1, the EC50 in assay [1] came out at 0.008 µg/mL; in assay [2] it was 0.01 µg/mL.

B2: rFluA-20 heavy chain mutant E97A (antibody, V domains shown)
VH: B1 VH with E102A
VL: B1 VL
With B2, the EC50 in [3] was determined as 1 µg/mL; in assay [4], 0.08 µg/mL; in assay [6], 0.12 µg/mL; in assay [7] it was 0.36 µg/mL; in assay [8], 0.64 µg/mL. This molecule also gave an EC50 fold over wild-type rFluA-20 in [5] of more than 100 fold.

B3: rFluA-20 (recombinant FluA-20 IgG) (antibody, V domains shown)
VH: B1 VH
VL: B1 VL
As for B3, the EC50 in assay [9] turned out to be 0.031 µg/mL; in assay [2], 0.012 µg/mL.

B4: rFluA-20 heavy chain mutant Y34A (antibody, V domains shown)
VH: B1 VH with Y34A
VL: B1 VL
As to B4, the EC50 is 0.44 µg/mL in [3]; 0.07 µg/mL in [4]; 0.1 µg/mL in [6]; 0.21 µg/mL in [7]; 0.54 µg/mL in assay [8]. The molecule also gave an EC50 fold over wild-type rFluA-20 in [5] of more than 100 fold.

B5: rFluA-20 heavy chain mutant D98A (antibody, V domains shown)
VH: B1 VH with D103A
VL: B1 VL
B5: the EC50 fold over wild-type rFluA-20 in assay [4] was more than 100 fold.

B6: rFluA-20 heavy chain mutant Y100aA (antibody, V domains shown)
VH: B1 VH with Y106A
VL: B1 VL
For the molecule B6, the EC50 fold over wild-type rFluA-20 in assay [3], in [4], in assay [5], in [6], in assay [7] and in assay [8] was more than 100 fold in each case.

B7: rFluA-20 heavy chain mutant T96A (antibody, V domains shown)
VH: B1 VH with T101A
VL: B1 VL
In the case of B7, the EC50 is 0.37 µg/mL in [3]; 0.04 µg/mL in assay [4]; 0.11 µg/mL in assay [5]; 0.07 µg/mL in [6]; 0.1 µg/mL in assay [7]; 0.23 µg/mL in assay [8].

B8: FluA-20 Fab (Fab, V domains shown)
VH: B1 VH
VL: B1 VL
The term Kd denotes the concentration at which binding is half-saturated. Higher therefore signals lower affinity. Consider B8, for which the values for the Kd in assay [10] and in assay [11] were 46 nM and 48 nM, respectively.

B9: rFluA-20 light chain mutant Q55A (antibody, V domains shown)
VH: B1 VH
VL: B1 VL with Q55A
As to B9, the EC50 in assay [12] is 0.08 µg/mL.

(Values after patent US20210252150A1.)
